Where a chain is given by its changes, count along the chain named. “And” between values parts separate entries of the source, which are not always exact repeats. Equal values may be shown once. Each block holds one binder with its values, some of them ahead of it.
Experiments:
[1] = target: T1, Recombinant hSIRPb-His (Antibodies-online, reference ABIN3077231) (human, UniProt Q5TFQ8 30-371); test: Blitz (BLI), SIRPb-His on Ni-NTA biosensor, antibody at 20 ug/mL
T1 construct: also called human SIRPb recombinant protein (Blitz); not shown: His tag (histidine tail)
T1 sequence (Q5TFQ8 30-371): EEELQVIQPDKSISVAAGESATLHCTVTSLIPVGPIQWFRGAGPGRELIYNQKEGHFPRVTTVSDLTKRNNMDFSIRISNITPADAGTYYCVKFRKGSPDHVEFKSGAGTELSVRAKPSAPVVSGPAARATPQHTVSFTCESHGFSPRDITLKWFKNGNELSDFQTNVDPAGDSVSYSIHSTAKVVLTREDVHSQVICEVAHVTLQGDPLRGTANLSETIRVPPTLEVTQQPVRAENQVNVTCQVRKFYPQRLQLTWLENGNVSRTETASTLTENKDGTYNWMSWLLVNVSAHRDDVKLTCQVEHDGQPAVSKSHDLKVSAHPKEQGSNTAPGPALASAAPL

[2] = target: T2, Recombinant hSIRPg-His (Sino Biologicals, reference 11828-H08H) (human, UniProt Q9P1W8 29-360); test: Blitz (BLI), SIRPg-His on Ni-NTA biosensor, antibody at 20 ug/mL
T2 construct: also called human SIRPg recombinant protein; not shown: His tag (histidine tail)
T2 sequence (Q9P1W8 29-360 limits assumed): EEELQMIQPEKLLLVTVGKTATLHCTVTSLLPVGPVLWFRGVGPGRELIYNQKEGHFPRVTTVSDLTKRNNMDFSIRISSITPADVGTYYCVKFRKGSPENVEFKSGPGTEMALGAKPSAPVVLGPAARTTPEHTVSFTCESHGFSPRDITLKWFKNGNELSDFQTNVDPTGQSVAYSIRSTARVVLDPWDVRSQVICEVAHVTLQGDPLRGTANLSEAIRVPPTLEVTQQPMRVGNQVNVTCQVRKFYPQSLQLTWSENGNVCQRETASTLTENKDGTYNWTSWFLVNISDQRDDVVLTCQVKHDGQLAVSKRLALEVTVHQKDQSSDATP

[3] = target: T3, recombinant hSIRPa (Sino Biologicals, reference 10975-H08H) (human, UniProt P78324 31-370); test: ELISA, hSIRPa (Sino 10975-H08H) coated at 0.5 ug/ml, anti-mouse Fc detection
T3 construct: A different catalogue item from m21; also called SIRPa-His (ELISA with the mouse antibodies)
T3 sequence (P78324 other isoform, or with tags, fused parts or gaps H08H H08H): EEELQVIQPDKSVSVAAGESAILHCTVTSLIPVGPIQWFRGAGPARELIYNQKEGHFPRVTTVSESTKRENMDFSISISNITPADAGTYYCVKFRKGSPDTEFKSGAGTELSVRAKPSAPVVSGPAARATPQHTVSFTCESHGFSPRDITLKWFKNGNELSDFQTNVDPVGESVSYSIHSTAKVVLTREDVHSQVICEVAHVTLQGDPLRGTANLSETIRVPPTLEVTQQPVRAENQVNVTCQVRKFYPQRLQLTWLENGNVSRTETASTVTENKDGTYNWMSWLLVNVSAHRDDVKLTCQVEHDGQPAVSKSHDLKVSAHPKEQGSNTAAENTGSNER

[4] = target: T4, SIRPg on peripheral human CD3+ T cells (human, UniProt Q9P1W8 29-387); test: flow cytometry on human CD3+ T cells, percent positive cells
T4 construct: whole, on cells; also called T cells that are known to express SIRPγ; human T cells
T4 sequence (Q9P1W8 29-387): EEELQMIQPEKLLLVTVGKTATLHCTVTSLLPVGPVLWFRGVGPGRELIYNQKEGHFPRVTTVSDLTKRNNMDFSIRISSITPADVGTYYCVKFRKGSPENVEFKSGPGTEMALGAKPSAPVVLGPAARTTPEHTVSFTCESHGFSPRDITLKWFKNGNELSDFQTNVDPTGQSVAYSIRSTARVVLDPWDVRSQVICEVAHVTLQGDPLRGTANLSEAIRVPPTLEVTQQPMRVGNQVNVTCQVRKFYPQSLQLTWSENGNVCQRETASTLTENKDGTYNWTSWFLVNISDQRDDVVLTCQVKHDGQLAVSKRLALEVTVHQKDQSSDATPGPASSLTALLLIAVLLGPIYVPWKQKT

- binding result [1]: binds
B1: HFLA (antibody, human IgG4 S228P, kappa, V domains shown)
VH: EVQLVQSGAEVKKPGESLRISCKASGYSFTSYWVHWVRQMPGKGLEWMGNIDPSDSDTHYSPSFQGHVTLSVDKSISTAYLQLSSLKASDTAMYYCVRGGTGTMAYFAYWGQGTLVTVSS
VL: DVVMTQSPLSLPVTLGQPASISCRSSQSLVHSYGNTYLYWYQQRPGQSPRLLIYRVSNRFSGVPDRFSGSGSGTDFTLKISRVEAEDVGVYFCFQGTHVPYTFGGGTKVEIKR
notes: also called humanized 18D5 variant HFLA

- binding result [1]: binds
- Kd [2]: 104 nM
B2: HFLB (antibody, human IgG4 S228P, kappa, V domains shown)
VH: B1 VH
VL: B1 VL with Y41F, F92Y
notes: also called humanized 18D5 variant HFLB

- binding result [1]: binds
B3: HEFLA (antibody, human IgG4 S228P, kappa, V domains shown)
VH: B1 VH with M104L
VL: B1 VL
notes: also called humanized 18D5 variant HEFLA

- binding result [1]: binds
B4: HEFLB (antibody, human IgG4 S228P, kappa, V domains shown)
VH: B1 VH with M104L
VL: B1 VL with Y41F, F92Y
notes: also called humanized 18D5 variant HEFLB; anti-SIRPa HEFLB

- EC50 [3]: 0.06 nM and 0.009 µg/mL
B5: mouse antibody 18D5 (antibody, mouse IgG2b, kappa)
heavy: QVQLQQPGAELVRPGSSVKLSCKASGYTFTSYWVHWVKQRPIQGLEWIGNIDPSDSDTHYNQKFKDKASLTVDKSSSTAYMQLSSLTFEDSAVYYCVRGGTGTMAWFAYWGQGTLVTVSAAKTTPPSVYPLAPGCGDTTGSSVTLGCLVKGYFPESVTVTWNSGSLSSSVHTFPALLQSGLYTMSSSVTVPSSTWPSQTVTCSVAHPASSTTVDKKLEPSGPISTINPCPPCKECHKCPAPNLEGGPSVFIFPPNIKDVLMISLTPKVTCVVVDVSEDDPDVQISWFVNNVEVHTAQTQTHREDYNSTIRVVSTLPIQHQDWMSGKEFKCKVNNKDLPSPIERTISKIKGLVRAPQVYILPPPAEQLSRKDVSLTCLVVGFNPGDISVEWTSNGHTEENYKDTAPVLDSDGSYFIYSKLNMKTSKWEKTDSFSCNVRHEGLKNYYLKKTISRSPGK
light: DVVMTQTPLSLPVSLGDQASISCRSSQSLVHSYGNTYLYWYLQKPGQSPKLLIYRVSNRFSGVPDRFSGSGSGTDFTLKISRVEAEDLGVYFCFQGTHVPYTFGSGTKLEIKRADAAPTVSIFPPSSEQLTSGGASVVCFLNNFYPKDINVKWKIDGSERQNGVLNSWTDQDSKDSTYSMSSTLTLTKDEYERHNSYTCEATHKTSTSPIVKSFNRNEC
notes: also called m18D5; m18D5 clone

- binding result [4]: no binding (tested: 10 micrograms/ml)
- binding result [1]: binds
B6: chimeric mouse/human 18D5 antibody (antibody, human IgG4 S228P, kappa)
heavy: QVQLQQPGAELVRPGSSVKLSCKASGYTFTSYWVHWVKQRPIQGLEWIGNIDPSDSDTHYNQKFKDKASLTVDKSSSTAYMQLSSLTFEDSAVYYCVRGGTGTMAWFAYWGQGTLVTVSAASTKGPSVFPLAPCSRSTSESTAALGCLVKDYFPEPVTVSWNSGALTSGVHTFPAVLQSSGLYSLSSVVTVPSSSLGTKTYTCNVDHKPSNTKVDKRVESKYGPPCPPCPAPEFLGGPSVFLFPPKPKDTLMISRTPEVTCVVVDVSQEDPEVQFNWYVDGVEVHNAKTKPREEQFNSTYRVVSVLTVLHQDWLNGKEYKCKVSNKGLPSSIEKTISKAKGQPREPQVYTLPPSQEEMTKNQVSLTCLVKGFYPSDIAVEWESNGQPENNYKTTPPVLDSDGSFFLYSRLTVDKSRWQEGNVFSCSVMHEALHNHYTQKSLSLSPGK
light: DVVMTQTPLSLPVSLGDQASISCRSSQSLVHSYGNTYLYWYLQKPGQSPKLLIYRVSNRFSGVPDRFSGSGSGTDFTLKISRVEAEDLGVYFCFQGTHVPYTFGSGTKLEIKRTVAAPSVFIFPPSDEQLKSGTASVVCLLNNFYPREAKVQWKVDNALQSGNSQESVTEQDSKDSTYSLSSTLTLSKADYEKHKVYACEVTHQGLSSPVTKSFNRGEC
notes: also called chimeric 18D5; the chimeric antibody

— patent EP3443010B1 (Ose Immunotherapeutics, dated 2024)
